“And” between values parts separate entries of the source, which are not always exact repeats. Identical values can stand only once.
Molecular target: T1, human integrin avb8 (human)
T1 chain 1: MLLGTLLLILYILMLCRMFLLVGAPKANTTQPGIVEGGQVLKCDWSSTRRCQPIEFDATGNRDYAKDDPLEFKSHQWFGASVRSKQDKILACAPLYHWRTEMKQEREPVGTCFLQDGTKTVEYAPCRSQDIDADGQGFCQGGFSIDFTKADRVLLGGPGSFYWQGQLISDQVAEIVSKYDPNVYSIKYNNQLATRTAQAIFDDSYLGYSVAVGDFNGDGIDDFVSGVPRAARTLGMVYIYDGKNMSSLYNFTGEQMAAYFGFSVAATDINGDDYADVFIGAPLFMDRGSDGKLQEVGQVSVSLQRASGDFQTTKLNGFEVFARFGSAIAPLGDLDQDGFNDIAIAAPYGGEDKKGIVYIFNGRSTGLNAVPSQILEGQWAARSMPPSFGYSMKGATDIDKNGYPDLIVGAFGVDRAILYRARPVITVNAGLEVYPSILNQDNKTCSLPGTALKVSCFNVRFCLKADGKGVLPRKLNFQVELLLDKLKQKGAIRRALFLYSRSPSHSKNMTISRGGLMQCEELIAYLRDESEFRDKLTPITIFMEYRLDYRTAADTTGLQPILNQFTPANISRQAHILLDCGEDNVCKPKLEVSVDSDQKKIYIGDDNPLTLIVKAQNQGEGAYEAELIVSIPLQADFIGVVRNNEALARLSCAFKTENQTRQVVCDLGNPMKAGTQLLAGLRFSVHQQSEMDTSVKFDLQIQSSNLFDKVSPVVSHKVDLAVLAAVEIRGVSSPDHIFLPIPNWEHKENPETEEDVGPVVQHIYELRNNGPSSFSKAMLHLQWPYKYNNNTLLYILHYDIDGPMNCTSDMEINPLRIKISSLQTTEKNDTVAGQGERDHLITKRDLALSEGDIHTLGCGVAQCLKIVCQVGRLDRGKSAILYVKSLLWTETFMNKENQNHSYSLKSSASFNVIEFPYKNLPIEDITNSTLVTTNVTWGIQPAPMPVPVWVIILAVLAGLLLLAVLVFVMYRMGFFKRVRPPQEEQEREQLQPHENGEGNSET
T1 chain 2: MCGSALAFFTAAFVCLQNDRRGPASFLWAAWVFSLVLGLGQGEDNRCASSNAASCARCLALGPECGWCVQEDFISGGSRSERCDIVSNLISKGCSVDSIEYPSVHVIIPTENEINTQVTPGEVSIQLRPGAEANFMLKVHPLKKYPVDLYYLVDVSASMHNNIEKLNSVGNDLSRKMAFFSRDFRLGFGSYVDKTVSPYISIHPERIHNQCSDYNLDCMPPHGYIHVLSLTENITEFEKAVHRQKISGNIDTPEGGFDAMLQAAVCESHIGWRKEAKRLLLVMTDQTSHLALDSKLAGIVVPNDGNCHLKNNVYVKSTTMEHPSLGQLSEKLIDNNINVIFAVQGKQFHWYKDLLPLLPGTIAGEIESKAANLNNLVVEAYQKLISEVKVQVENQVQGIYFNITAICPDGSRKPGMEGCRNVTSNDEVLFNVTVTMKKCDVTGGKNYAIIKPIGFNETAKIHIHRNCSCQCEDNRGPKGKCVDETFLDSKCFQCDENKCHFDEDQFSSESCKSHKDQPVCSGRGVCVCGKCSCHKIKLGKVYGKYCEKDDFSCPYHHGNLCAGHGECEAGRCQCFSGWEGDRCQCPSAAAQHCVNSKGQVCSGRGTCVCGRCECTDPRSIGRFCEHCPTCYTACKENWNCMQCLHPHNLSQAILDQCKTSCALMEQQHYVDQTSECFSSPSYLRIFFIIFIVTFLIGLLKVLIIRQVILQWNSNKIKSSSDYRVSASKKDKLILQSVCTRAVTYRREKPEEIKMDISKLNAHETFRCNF
Assay: FACS U251 cells

B1: ADWA11 2.4 IgG (antibody)
chain 1: EVQLVESGGGLVQPGGSLRLSCAASGFNIKDYYMNWVRQAPGKGLEWVGWIDPDQGNTIYEPKFQGRFTISADTSKNSAYLQMNSLRAEDTAVYYCARRLLMDYWGQGTLVTVSSASTKGPSVFPLAPSSKSTSGGTAALGCLVKDYFPEPVTVSWNSGALTSGVHTFPAVLQSSGLYSLSSVVTVPSSSLGTQTYICNVNHKPSNTKVDKKVEPKSCDKTHTCPPCPAPEAAGAPSVFLFPPKPKDTLMISRTPEVTCVVVDVSHEDPEVKFNWYVDGVEVHNAKTKPREEQYNSTYRVVSVLTVLHQDWLNGKEYKCKVSNKALPAPIEKTISKAKGQPREPQVYTLPPSREEMTKNQVSLTCLVKGFYPSDIAVEWESNGQPENNYKTTPPVLDSDGSFFLYSKLTVDKSRWQQGNVFSCSVMHEALHNHYTQKSLSLSPGK
chain 2: DIQMTQSPSSLSASVGDRVTITCRSTKSLSHFNGNTYLFWYQQKPGKAPKRLIYYMSSLASGVPSRFSGSGSGTDFTLTISSLQPEDFATYYCQQSLEYPFTFGGGTKVEIKRTVAAPSVFIFPPSDEQLKSGTASVVCLLNNFYPREAKVQWKVDNALQSGNSQESVTEQDSKDSTYSLSSTLTLSKADYEKHKVYACEVTHQGLSSPVTKSFNRGEC
  EC50: 256 pM and 126 pM

Source: patent US20220289850 (published 2022)
